B1: HDV Ribozyme (parent)
chain: GGCCGGCAUGGUCCCAGCCUCCUCGCUGGCGCCGGCUGGGCAACAUUCCGAGGGGACCGUCCCCUCGGUAAUGGCGAAUGGGACCCA

This series covers variants of B1. As to the kind of experiment: self-cleavage, relative activity (ratio to wild type); higher = more cleavage; co-transcriptional.
C7G C66A: the self-cleavage stood at 0.161. Take C7A G74C: the self-cleavage came out at 0.131. As for C7G G81C, the figure is 0; as for C7G G81A, 0.0594. Next, C7G C21G: 0; C7G C21A: 0. As for C7G C58G, the self-cleavage turned out to be 0.293.

In the case of C7G C58A, the self-cleavage was 0.506.

On to G6U G25A, for which the self-cleavage stood at 0.169. Next, C7A C85A: 0.453; C7A C85U: 0.807.

On to G6U G68A, for which the self-cleavage came to 0.483. In the case of C7U A71C, the self-cleavage stood at 0.322.

With C7U A71U, the self-cleavage was 0.677. As for C7U A71G, the self-cleavage turned out to be 0.931. As for C7G G38C, the figure is 0.0594; as for C7A A42G, 0.0831. In the case of C7A A42U, the self-cleavage came to 0.108. As for C7U A70U, the figure is 0.748; as for G6U G38A, 0.0396. Regarding G6U G38U, the self-cleavage amounted to 0.0308. Turning to G6U U65G, the self-cleavage turned out to be 0.453. Next, C7A C36U: 0.203; C7A C36A: 0.0923; G6U C85G: 0.297.

Take C7A G34A: the self-cleavage stood at 0.175. With C7A G34U, the self-cleavage came to 0.

Take C7A G34C: the self-cleavage was 0. With C7A U37G, the self-cleavage is 0.246. As to C7A C13A, the self-cleavage was found to be 0.185. For the variant C7A A8G, the self-cleavage was determined as 0.831. Next, C7A A8U: 0.609; C7A A8C: 0.65; C7G G28A: 0.0536. With C7G G28C, the self-cleavage came to 0. For C7G G28U, the self-cleavage turned out to be 0.0875. As to G6U U12C, the self-cleavage was determined as 0.0573. As to G6U U12G, the self-cleavage was 0. For the variant G6U U12A, the self-cleavage was found to be 0.

Turning to C7A G55C, the self-cleavage amounted to 0.778. For the variant C7A G55U, the self-cleavage was 0.4. Take C7A A16U: the self-cleavage was 0.499. On to C7A A16G, for which the self-cleavage was 0.249. For the variant C7A A16C, the self-cleavage came out at 0.277. C7A U72G: the self-cleavage came to 0. Consider C7A U72C, for which the self-cleavage turned out to be 0.196. Take C7A U72A: the self-cleavage was determined as 0.308.

On to C7G G11U, for which the self-cleavage stood at 0.104. For the variant C7A G40C, the self-cleavage was found to be 0.102. Regarding C7G U65A, the self-cleavage amounted to 0. Next, C7G G59C: 0.404; C7G G59A: 0.332. As for C7G U60G, the figure is 0.256; as for C7G U60C, 0.383; as for C7G A87C, 0.211. In the case of C7G A87G, the self-cleavage was determined as 0.381.

For C7A A83C, the self-cleavage is 0.0923. Next, C7G C26A: 0.138. Regarding C7G C26G, the self-cleavage came out at 0.369.

Take C7A G17U: the self-cleavage worked out at 0.162. With C7A G17A, the self-cleavage is 0.0475. As to C7A G17C, the self-cleavage is 0. Take G6U G73A: the self-cleavage is 0.113.

As to G6U G28U, the self-cleavage is 0.104.

G6U G35U: the self-cleavage was 0.143. Next, G6U G35A: 0.208; C7A C41G: 0. As for C7A C41A, the figure is 0.342; as for C7A C14G, 0. For C7A C14U, the self-cleavage was found to be 0.447.

Turning to C7G U23G, the self-cleavage was 0.217.

On to C7G U23A, for which the self-cleavage amounted to 0.227. Regarding C7A U79C, the self-cleavage was found to be 0.128.

Regarding C7G G54U, the self-cleavage stood at 0.219. Regarding C7G G54A, the self-cleavage was 0.302. Take C7G G54C: the self-cleavage came to 0.415. As for C7G C33G, the figure is 0.237.

Regarding C7G G82A, the self-cleavage stood at 0.113. For C7G C44G, the self-cleavage was determined as 0.0755. As for C7G G73C, the figure is 0; as for C7G C30U, 0.138. With C7G C30G, the self-cleavage stood at 0.119.

As for C7A U27G, the self-cleavage was 0.447. In the case of C7A U27A, the self-cleavage was 0.609. As for C7A C22G, the figure is 0.0791; as for C7G A77C, 0.0692; as for G6U U46G, 0.123.

On to G6U U46A, for which the self-cleavage stood at 0.0755. Consider G6U U46C, for which the self-cleavage stood at 0.133.

As to C7G C57G, the self-cleavage was found to be 0.208. With C7G C57U, the self-cleavage amounted to 0.383.

With G6U G50C, the self-cleavage came out at 0.776.

With C7G G10A, the self-cleavage is 0.128.

For C7G C41G, the self-cleavage turned out to be 0.128. As for C7G C41U, the figure is 0.0615; as for C7G C41A, 0; as for C7U A43U, 0.475.

For the variant C7U A43C, the self-cleavage was determined as 0.26.

Consider C7U A43G, for which the self-cleavage is 0.19. With C7A C63G, the self-cleavage came to 0.35. With C7A C63A, the self-cleavage came out at 0.489. On to C7A G52C, for which the self-cleavage is 0.482.

As for C7G C32G, the self-cleavage was 0.115. As for C7G C32U, the self-cleavage was found to be 0.104. With C7G A16G, the self-cleavage came to 0.0978. Next, C7G A16C: 0.151; C7G A16U: 0.0692; C7G A56C: 0.391. As for C7G A56G, the figure is 0.208; as for G6U U37A, 0.0437; as for G6U G74C, 0.0449. On to C7A G81A, for which the self-cleavage amounted to 0.0302. Next, C7G C85U: 0.32; C7G C85G: 0.237; C7G A45C: 0. As for G6U G55U, the figure is 0.942; as for G6U G55A, 0.59. As to G6U G55C, the self-cleavage was determined as 0.495.

As to C7U A8C, the self-cleavage amounted to 0.917. On to G6U U60A, for which the self-cleavage is 0.571. As for G6U U60G, the self-cleavage was 0.346. As for G6U G39C, the figure is 0.151. Regarding G6U G39U, the self-cleavage was 0.106.

On to C7A G68C, for which the self-cleavage was found to be 0.341. As to C7A G29U, the self-cleavage is 0.0875. Take C7A G29C: the self-cleavage amounted to 0.0707. As for C7G C15G, the figure is 0; as for C7G C15A, 0.

For C7G C15U, the self-cleavage was determined as 0.0978. As to C7U A16U, the self-cleavage is 0.643. As for C7U A16G, the figure is 0.72; as for C7A G39C, 0; as for C7G A70U, 0.475. C7A C21A: the self-cleavage is 0.0791. C7A C21U: the self-cleavage was determined as 0. For C7A C21G, the self-cleavage is 0.

As for G6U G76U, the self-cleavage was 0.731. Next, G6U G76A: 0.708; C7A A70C: 0.346; C7A A70G: 0.426.

On to C7A A70U, for which the self-cleavage was 0.356. On to C7G G39U, for which the self-cleavage is 0. As for G6U G81C, the self-cleavage stood at 0.196.

Take G6U G81U: the self-cleavage turned out to be 0.154. As for G6U G81A, the figure is 0.0997; as for C7G G80U, 0.0462. Turning to C7G G80C, the self-cleavage turned out to be 0. With G6U G67A, the self-cleavage is 0.517.

Take G6U G67U: the self-cleavage stood at 0.62. Consider C7A G54A, for which the self-cleavage was determined as 0.504. For C7A G54U, the self-cleavage is 0.609. Take C7U A87G: the self-cleavage turned out to be 0.91. As for C7G G68C, the self-cleavage is 0.0504. As for C7G G68U, the figure is 0.285; as for C7U A77G, 0.434. On to C7A C30G, for which the self-cleavage stood at 0.0791.

Take C7A C30A: the self-cleavage came to 0.0282. Consider C7A C30U, for which the self-cleavage turned out to be 0.0396. As to C7G G67U, the self-cleavage turned out to be 0.302.

Turning to C7G G67A, the self-cleavage came to 0.128. Regarding G6U U79C, the self-cleavage is 0.123. Consider G6U U79A, for which the self-cleavage was 0.246. C7G A83G: the self-cleavage is 0.17. For C7G A83C, the self-cleavage was determined as 0.175. As to C7A C24A, the self-cleavage was 0.125. In the case of C7A C24U, the self-cleavage stood at 0.306. As to G6U C86G, the self-cleavage worked out at 0.467.

These data come from the RNAGym collection of RNA variant scans (doi:10.7554/elife.80360).
